The Immune Epitope Database (IEDB)

Experiments:
Experiment in all cases: IEDB peptide-MHC binding, purified MHC/competitive/radioactivity; filed as Kd, often an IC50 or EC50 that approximates it; ≥ and ≤ were set here for values at or beyond the usual limits of such assays
HLA-B*18:01 = target: HLA-B*18:01
HLA-B*40:01 = target: HLA-B*40:01
HLA-B*40:02 = target: HLA-B*40:02
HLA-B*44:02 = target: HLA-B*44:02
HLA-B*44:03 = target: HLA-B*44:03
HLA-B*45:01 = target: HLA-B*45:01
HLA-A*32:01 = target: HLA-A*32:01
HLA-B*15:01 = details: source organism: Vaccinia virus WR
[1] = source organism: SARS coronavirus Tor2
[2] = source organism: Lymphocytic choriomeningitis virus (strain Armstrong)
[3] = source organism: Dengue virus 4 Philippines/H241/1956
[4] = source organism: Mammarenavirus guanaritoense

Row | Sequence | Kd (HLA-B*18:01; [1]) [nM] | Kd (HLA-B*40:01; [1]) [nM] | Kd (HLA-B*40:02; [1]) [nM] | Kd (HLA-B*44:02; [1]) [nM] | Kd (HLA-B*44:03; [1]) [nM] | Kd (HLA-B*45:01; [1]) [nM] | also measured
1 | QELLIQQWI | 8660 | 186 | 61.7 | 91.2 | 13500 | 316 | 
2 | QVLMMRTTW |  |  |  |  |  |  | Kd (HLA-A*32:01; source organism: Dengue virus 2 Jamaica/1409/1983): 73.5 nM
3 | REAVESCPLM |  |  |  |  |  |  | Kd (HLA-B*18:01; [2]): 3040 nM; Kd (HLA-B*40:01; [2]): 105 nM; Kd (HLA-B*40:02; [2]): 9.86 nM; Kd (HLA-B*44:02; [2]): 525 nM; Kd (HLA-B*44:03; [2]): 2180 nM; Kd (HLA-B*45:01; [2]): 8140 nM
4 | REGVFVFNG | ≥ 39000 | 1550 | 222 | 4770 | 298 | 136 | 
5 | RELNGGAVT | ≥ 53300 | 212 | 21.9 | 9110 | 7290 | 43.9 | 
6 | RLIVLFEVF |  |  |  |  |  |  | Kd (HLA-A*32:01; source organism: Vaccinia virus WR): 12.6 nM; Kd (HLA-B*15:01): 6.84 nM
7 | SAVPVHWVPT |  |  |  |  |  |  | Kd (HLA-A*32:01; source organism: Dengue virus 3 Martinique/1243/1999): 2000 nM
8 | SDEVARDLSL | ≥ 43200 | 353 | 10600 | 5650 | 3870 | 262 | 
9 | SKGWKNWQEV |  |  |  |  |  |  | Kd (HLA-A*32:01; [3]): 19800 nM
10 | SKGWNDWQQV |  |  |  |  |  |  | Kd (HLA-A*32:01; source organism: Dengue virus 1 Brazil/97-11/1997): ≥ 56200 nM
11 | TEQFINYCL |  |  |  |  |  |  | Kd (HLA-B*18:01; [4]): 399 nM; Kd (HLA-B*40:01; [4]): 306 nM; Kd (HLA-B*40:02; [4]): 32.3 nM; Kd (HLA-B*44:02; [4]): 100 nM; Kd (HLA-B*44:03; [4]): 416 nM; Kd (HLA-B*45:01; [4]): 129 nM
12 | WEILKFLITG | ≥ 41600 | 19000 | 542 | 8580 | 2930 | 1170 | 
13 | WNTGFDWITD |  |  |  |  |  |  | Kd (HLA-A*32:01; [3]): 1150 nM
